Key:
[1] = target: SARS-CoV-2 spike protein (full length, wild type) (SARS-CoV-2, UniProt P0DTC2 14-1273); experiment: cell-based or functional assay
[2] = target: SARS-CoV-2 spike receptor binding domain (RBD) (SARS-CoV-2, UniProt P0DTC2 319-541); experiment: RBD/ACE2 competition; RBD binding to ACE2 on HEK-293 cells

B1: 8A1 (antibody, V domains shown)
VH: EVQLQESGGGLVQPGGSLKLSCAASGFTFSSYTMSWVRQTPEKRLEWVAYISNGGGSISYPDTVKGRFTISRDNAKNTLYLHMSSLKSEDTAMYHCAREGLRPGDRDRYYAMDYWGQGTSVTVSS
VL: DIVITQSPALMAAFPGDRVTITCSVSSSVSSSNLHWYRQKSETSPKPWIYGTSTLASGVPVRFSGSGSGTSYSLTISSMEAEDAATYYCQQWSSYPLTFGAGTKLELKR
For B1, the “EC50 (pM)” value [1] was 96 pM and the “ACE2 Inhibition (%)” value [2] was 95%.

Source: US20230391856A1 (ICAHN SCHOOL OF MEDICINE AT MOUNT SINAI, published 2023)
